B1: Capg (protein, UniProt P24452 1-352, looked up)
Macrophage-capping protein: MYTPIPQSGSPFPASVQDPGLHIWRVEKLKPVPIARESHGIFFSGDSYLVLHNGPEEASHLHLWIGQQSSRDEQGACAVLAVHLNTLLGERPVQHREVQGNESDLFMSYFPRGLKYYREGGVESAFHKTTSGARGAAIRKLYQVKGKKNIRATERPLSWDSFNTGDCFILDLGQNIFAWCGGKSNILERNKARDLALAIRDSERQGKAQVEIITDGEEPAEMIQVLGPKPALKEGNPEEDITADQTRPNAQAAALYKVSDATGQMNLTKVADSSPFASELLIPDDCFVLDNGLCAQIYIWKGRKANEKERQAALQVADGFISRMRYSPNTQVEILPQGRESPIFKQFFKNWK
B2: Add1 (protein, UniProt P35611 1-737, looked up)
Alpha-adducin: MNGDSRAAVVTSPPPTTAPHKERYFDRVDENNPEYLRERNMAPDLRQDFNMMEQKKRVSMILQSPAFCEELESMIQEQFKKGKNPTGLLALQQIADFMTTNVPNVYPAAPQGGMAALNMSLGMVTPVNDLRGSDSIAYDKGEKLLRCKLAAFYRLADLFGWSQLIYNHITTRVNSEQEHFLIVPFGLLYSEVTASSLVKINLQGDIVDRGSTNLGVNQAGFTLHSAIYAARPDVKCVVHIHTPAGAAVSAMKCGLLPISPEALSLGEVAYHDYHGILVDEEEKVLIQKNLGPKSKVLILRNHGLVSVGESVEEAFYYIHNLVVACEIQVRTLASAGGPDNLVLLNPEKYKAKSRSPGSPVGEGTGSPPKWQIGEQEFEALMRMLDNLGYRTGYPYRYPALREKSKKYSDVEVPASVTGYSFASDGDSGTCSPLRHSFQKQQREKTRWLNSGRGDEASEEGQNGSSPKSKTKWTKEDGHRTSTSAVPNLFVPLNTNPKEVQEMRNKIREQNLQDIKTAGPQSQVLCGVVMDRSLVQGELVTASKAIIEKEYQPHVIVSTTGPNPFTTLTDRELEEYRREVERKQKGSEENLDEAREQKEKSPPDQPAVPHPPPSTPIKLEEDLVPEPTTGDDSDAATFKPTLPDLSPDEPSEALGFPMLEKEEEAHRPPSPTEAPTEASPEPAPDPAPVAEEAAPSAVEEGAAADPGSDGSPGKSPSKKKKKFRTPSFLKKSKKKSDS
B3: Mcm2 (protein, UniProt P97310 2-904, looked up)
DNA replication licensing …: AESSESLSASSPARQRRRISDPLTSSPGRSSRRADALTSSPGRDLPPFEDESEGLLGTEGPMEEEEDGEELIGDGMERDYRPIPELDVYEAEGLALDDEDVEELTASQREAAERTMRQRDREAGRGLGRMRRGLLYDSSEEDEERPARKRRHVERATEDGEEDEEMIESIENLEDLKGHSVREWVSMAGPRLEIHHRFKNFLRTHVDSHGHNVFKERISDMCKENRESLVVNYEDLAAREHVLAYFLPEAPAELLQIFDEAALEVVLAMYPKYDRITNHIHVRISHLPLVEELRSLRQLHLNQLIRTSGVVTSCTGVLPQLSMVKYNCSKCNFVLGPFCQSQNQEVKPGSCPECQSAGPFEINMEETIYQNYQRIRIQESPGKVAAGRLPRSKDAILLADLVDSCKPGDEIELTGIYHNNYDGSLNTANGFPVFATIILANHVAKKDNKVAVGELTDEDVKMITGLSKDQQIGEKIFASIAPSIYGHEDIKRGLALALFGGEPKNPGGKHKVRGDINVLLCGDPGTAKSQFLKYIEKVSSRAIFTTGQGASAVGLTAYVQRHPVSREWTLEAGALVLADRGVCLIDEFDKMNDQDRTSIHEAMEQQSISISKAGIVTSLQARCTVIAAANPIGGRYDPSLTFSENVDLTEPIISRFDVLCVVRDTVDPVQDEMLARFVVGSHVRHHPSNKKDEGLTNGGTLEPAMPNTYGVEPLPQEVLKKYIIYAKERVRPKLNQMDQDKVARMYSDLRKESMATGSIPITVRHIESMIRMAEAHARMHLRDYVMEDDVNMAIRVMMESFIDTQKFSVMRSMRKTFARYLSFRRDNNDLLLFILKQLVAEQVTYQRNRFGAQQDTIEIPEKDLMDKARQINIHNLSAFYDSDLFKFNKFSRDLKRKLILQQF
B4: Ddx5 (protein, UniProt Q61656 1-614, looked up)
Probable ATP-dependent RNA …: MSSYSSDRDRGRDRGFGAPRFGGSRTGPLSGKKFGNPGEKLVKKKWNLDELPKFEKNFYQEHPDLARRTAQEVDTYRRSKEITVRGHNCPKPVLNFYEANFPANVMDVIARQNFTEPTAIQAQGWPVALSGLDMVGVAQTGSGKTLSYLLPAIVHINHQPFLERGDGPICLVLAPTRELAQQVQQVAAEYCRACRLKSTCIYGGAPKGPQIRDLERGVEICIATPGRLIDFLECGKTNLRRTTYLVLDEADRMLDMGFEPQIRKIVDQIRPDRQTLMWSATWPKEVRQLAEDFLKDYIHINIGALELSANHNILQIVDVCHDVEKDEKLIRLMEEIMSEKENKTIVFVETKRRCDELTRKMRRDGWPAMGIHGDKSQQERDWVLNEFKHGKAPILIATDVASRGLDVEDVKFVINYDYPNSSEDYIHRIGRTARSTKTGTAYTFFTPNNIKQVSDLISVLREANQAINPKLLQLVEDRGSGRSRGRGGMKDDRRDRYSAGKRGGFNTFRDRENYDRGYSNLLKRDFGAKTQNGVYSAANYTNGSFGSNFVSAGIQTSFRTGNPTGTYQNGYDSTQQYGSNVANMHNGMNQQAYAYPLPQAAPMIGYPMPTGYSQ
B5: Psmd1 (protein, UniProt Q3TXS7 1-953, looked up)
26S proteasome non-ATPase …: MITSAAGIISLLDEEEPQLKEFALHKLNAVVNDFWAEISESVDKIEVLYEDEGFRSRQFAALVASKVFYHLGAFEESLNYALGAGDLFNVNDNSEYVETIIAKCIDHYTKQCVENADLPEGEKKPIDQRLEGIVNKMFQRCLDDHKYKQAIGIALETRRLDVFEKTILESNDVPGMLAYSLKLCMSLMQNKQFRNKVLRVLVKIYMNLEKPDFINVCQCLIFLDDPQAVSDILEKLVKEDNLLMAYQICFDLYESASQQFLSSVIQNLRTVGTPIASVPGSTNTGTVPGSEKDSDPMETEEKTASAVAGKTPDASPEPKDQTLKMIKILSGEMAIELHLQFLIRNNNTDLMILKNTKDAVRNSVCHTATVIANSFMHCGTTSDQFLRDNLEWLARATNWAKFTATASLGVIHKGHEKEALQLMATYLPKDTSPGSAYQEGGGLYALGLIHANHGGDIIDYLLNQLKNASNDIVRHGGSLGLGLAAMGTARQDVYDLLKTNLYQDDAVTGEAAGLALGLVMLGSKNAQAIEDMVGYAQETQHEKILRGLAVGIALVMYGRMEEADALIESLCRDKDPILRRSGMYTVAMAYCGSGNNKAIRRLLHVAVSDVNDDVRRAAVESLGFILFRTPEQCPSVVSLLSESYNPHVRYGAAMALGICCAGTGNKEAINLLEPMTNDPVNYVRQGALIASALIMIQQTEITCPKVNQFRQLYSKVINDKHDDVMAKFGAILAQGILDAGGHNVTISLQSRTGHTHMPSVVGVLVFTQFWFWFPLSHFLSLAYTPTCVIGLNKDLKMPKVQYKSNCKPSTFAYPAPLEVPKEKEKEKVSTAVLSITAKAKKKEKEKEKKEEEKMEVDEAEKKEEKEKKKEPEPNFQLLDNPARVMPAQLKVLSMTETCRYQPFKPLSIGGIIILKDTSEDVEELVEPVAAHGPKIEEEEQEPEPPEPFEYIDD
B6: Dbn1 (protein, UniProt Q16643 2-649, looked up)
Drebrin: AGVSFSGHRLELLAAYEEVIREESAADWALYTYEDGSDDLKLAASGEGGLQELSGHFENQKVMYGFCSVKDSQAALPKYVLINWVGEDVPDARKCACASHVAKVAEFFQGVDVIVNASSVEDIDAGAIGQRLSNGLARLSSPVLHRLRLREDENAEPVGTTYQKTDAAVEMKRINREQFWEQAKKEEELRKEEERKKALDERLRFEQERMEQERQEQEERERRYREREQQIEEHRRKQQTLEAEEAKRRLKEQSIFGDHRDEEEETHMKKSESEVEEAAAIIAQRPDNPREFFKQQERVASASAGSCDVPSPFNHRPGSHLDSHRRMAPTPIPTRSPSDSSTASTPVAEQIERALDEVTSSQPPPLPPPPPPAQETQEPSPILDSEETRAAAPQAWAGPMEEPPQAQAPPRGPGSPAEDLMFMESAEQAVLAAPVEPATADATEIHDAADTIETDTATADTTVANNVPPAATSLIDLWPGNGEGASTLQGEPRAPTPPSGTEVTLAEVPLLDEVAPEPLLPAGEGCATLLNFDELPEPPATFCDPEEVEGESLAAPQTPTLPSALEELEQEQEPEPHLLTNGETTQKEGTQASEGYFSQSQEEEFAQSEELCAKAPPPVFYNKPPEIDITCWDADPVPEEEEGFEGGD
B7: Plekho2 (protein, UniProt Q8K124 1-495, looked up)
Pleckstrin homology …: MEEESIKEGSEKPRGARTADKAGWIKKSSGGLLGLWKDRYLLLCQAQLLVYENEDEQKCVETVELGSYEKCQDLRTLLKRKHHRFILLRSPGNKVSDIKFQAPSGEEKESWIKALNEGINRGKNKAFDEVKVDKTCALEHVTRNRVRGGQRRRPPTRIHLKEVASAASDGLSRLDLDVPDSGPPVFAPLSDISEDQPQEPPRALMPPVKPSPGPETSAVEDSKETPAGERALTPDSASSGANPESQEDAETPAKEDSDVKSLPNSTLSEKLKVSWENPSPEKPSAPESAQLSSSETPEATPRESKKPPAPPPKILSEKMKACMSGVDASGSSQSSEAPETTSPEPTQVSVNGMDDGPESALQAMGIPGPAPEDAAASPALPFSDLPSQFHPRSSSLGDLLRESPQHPRLPKEKLYRAQLEVKVASKQTEKLLNQVLGSEPPPVCAESLLSQAVEQLRQATQVLQEMRDLGELNQETPGLVQKRKELVTLYRRSAP

tested on: WT MEF EVs; experiment: Quantitative LC-MS/MS proteomics of EVs from ISRIB-treated WT MEF cultures; assay type: cell-based, mouse; parameters: key to ISRIB and DYT Parallel Direction / ISRIB and DYT Parallel Direction, Ctdsp1 / ISRIB and DYT Parallel Direction, Pcdh19 / ISRIB and DYT Parallel Direction, Tspan7 / ISRIB and DYT Parallel Direction, Myo1e / ISRIB and DYT Parallel Direction, Plpp3 / ISRIB and DYT Parallel Direction, Sh3bp4 / ISRIB and DYT Parallel Direction, Dnajc7 / ISRIB and DYT Parallel Direction, Drg1 / ISRIB and DYT Parallel Direction, Maea: YES = protein abundance effect similar to DYT/WT; conditions: EV protein abundance, ISRIB-treated WT vs WT

Row | Molecule | WT + ISRIB/WT Cohen's d
1 | B1 | −0.61
2 | B2 | 0.00
3 | B3 | −2.10
4 | B4 | −0.92
5 | B5 | −0.65
6 | B6 | −3.18
7 | B7 | 0.14

same assay, conditions: EV protein abundance, WT + ISRIB vs WT, direction compared with DYT/WT

Row | Molecule | ISRIB and DYT Parallel Direction
8 | B1 | YES
9 | B2 | YES
10 | B3 | YES
11 | B4 | YES
12 | B5 | YES
13 | B6 | YES
14 | B7 | YES

tested on: DYT-TOR1A MEF EVs; experiment: Quantitative LC-MS/MS proteomics of EVs from drug-treated DYT-TOR1A MEF cultures (ritonavir, salubrinal); assay type: cell-based, mouse; parameters: key to RTV Corrective Direction / RTV Corrective Direction, Grwd1 / RTV Corrective Direction, Srrm2 / RTV Corrective Direction, Rbm17 / RTV Corrective Direction, Dcaf8 / RTV Corrective Direction, Edil3 / RTV Corrective Direction, Timp3 / RTV Corrective Direction, Heatr3 / RTV Corrective Direction, Brd4 / RTV Corrective Direction, P3h4 / RTV Corrective Direction, Pacsin3 / RTV Corrective Direction, Naa50 / RTV Corrective Direction, Lpar6 / RTV Corrective Direction, Ndrg1 / RTV Corrective Direction, Kntc1 / RTV Corrective Direction, Cdk11b / RTV Corrective Direction, Sumo1 / RTV Corrective Direction, Lsm4 / RTV Corrective Direction, Hmga2 / RTV Corrective Direction, Cstf1 / RTV Corrective Direction, Tes / RTV Corrective Direction, Sbno1 / RTV Corrective Direction, Unc119b / RTV Corrective Direction, Cfdp1 / RTV Corrective Direction, Sec61b: YES = protein abundance effect opposite to DYT/WT; conditions: EV protein abundance, DYT + RTV (ritonavir) vs DYT, direction compared with DYT/WT

Row | Molecule | RTV Corrective Direction
15 | B1 | YES
16 | B2 | YES
17 | B3 | YES
18 | B4 | YES
19 | B5 | YES
20 | B6 | YES
21 | B7 | YES

same assay, conditions: EV protein abundance, ritonavir (RTV)-treated DYT vs DYT

Row | Molecule | DYT + RTV/DYT Cohen's d
22 | B1 | 3.57
23 | B2 | 4.30
24 | B3 | 3.96
25 | B4 | 4.48
26 | B5 | 4.33
27 | B6 | 4.58
28 | B7 | −5.03
